This sample holds only a part of the variants without activity.
Assays:
[1] = system: biotinyl-Phe-oxazolone; assay: self-aminoacylation, catalytic enhancement (BFO) (fold over background); higher = more active; k-Seq, kA / k0A0; sequences stand for … in GGGAAUGGAUCCACAUCUACGAAUUC…UUCACUGCAGACUUGACGAAGCUG
Method in brief: (§1)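 Working in 50 μL HEPES/NaCl/KCl/MgCl2/CaCl2 buffer with 5% acetonitrile at pH 6.9–7.0, mutagenized RNA pools (0.43 μM; 21-nt variable region) were reacted with 2–1250 μM of each biotinyl-aminoacyl-oxazolone for 90 minutes at room temperature. Streptavidin capture followed, with quantification by triplicate qPCR and Illumina sequencing. Catalytic enhancement is reported as median kA over the uncatalyzed rate, the low-activity peak of a bimodal Gaussian fit to the data.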

[2] = system: biotinyl-Ile-oxazolone; assay: self-aminoacylation, catalytic enhancement (BIO) (fold over background); higher = more active; k-Seq, kA / k0A0; sequences stand for … in GGGAAUGGAUCCACAUCUACGAAUUC…UUCACUGCAGACUUGACGAAGCUG
Method in brief: as §1

[3] = system: biotinyl-Met-oxazolone; assay: self-aminoacylation, catalytic enhancement (BMO) (fold over background); higher = more active; k-Seq, kA / k0A0; sequences stand for … in GGGAAUGGAUCCACAUCUACGAAUUC…UUCACUGCAGACUUGACGAAGCUG
Method in brief: as §1

[4] = system: biotinyl-Val-oxazolone; assay: self-aminoacylation, catalytic enhancement (BVO) (fold over background); higher = more active; k-Seq, kA / k0A0; sequences stand for … in GGGAAUGGAUCCACAUCUACGAAUUC…UUCACUGCAGACUUGACGAAGCUG
Method in brief: as §1

[5] = system: biotinyl-Leu-oxazolone; assay: self-aminoacylation, catalytic enhancement (BLO) (fold over background); higher = more active; k-Seq, kA / k0A0; sequences stand for … in GGGAAUGGAUCCACAUCUACGAAUUC…UUCACUGCAGACUUGACGAAGCUG
Method in brief: as §1

[6] = system: biotinyl-Trp-oxazolone; assay: self-aminoacylation, catalytic enhancement (BWO) (fold over background); higher = more active; k-Seq, kA / k0A0; sequences stand for … in GGGAAUGGAUCCACAUCUACGAAUUC…UUCACUGCAGACUUGACGAAGCUG
Method in brief: as §1

CCACACAUCAAACAAUCGGUC [Fam1B.1 aminoacylation ribozyme variant]
self-aminoacylation [1]: 3.04
self-aminoacylation [2]: 0.795
self-aminoacylation [3]: 0.715
self-aminoacylation [4]: 0.92
self-aminoacylation [5]: 0.749
self-aminoacylation [6]: 1.92

AUUACCUUGGUAAUCGAGUGA [Fam2.1 aminoacylation ribozyme variant]
self-aminoacylation [1]: 40
self-aminoacylation [2]: 3.52
self-aminoacylation [3]: 7.66
self-aminoacylation [4]: 3.87
self-aminoacylation [5]: 8.08
self-aminoacylation [6]: 8.42

AUACACCUAGGACAUCGGGUG [Fam2.2 aminoacylation ribozyme variant]
self-aminoacylation [1]: 14.1
self-aminoacylation [2]: 2.73
self-aminoacylation [3]: 2.98
self-aminoacylation [4]: 2.79
self-aminoacylation [5]: 2.82
self-aminoacylation [6]: 5.32

CUACUUCAAAAAAGCGGUCUG [Fam1A.1 aminoacylation ribozyme variant]
self-aminoacylation [1]: 0.451
self-aminoacylation [2]: 0.999
self-aminoacylation [3]: 1.02
self-aminoacylation [4]: 0.801
self-aminoacylation [5]: 0.966
self-aminoacylation [6]: 0.633

CCACACUUCAAGCUAUAGGUC [Fam1B.1 aminoacylation ribozyme variant]
self-aminoacylation [1]: 0.975
self-aminoacylation [2]: 0.613
self-aminoacylation [3]: 0.513
self-aminoacylation [4]: 0.806
self-aminoacylation [5]: 0.489
self-aminoacylation [6]: 0.508

CCGCUCUUCAAGCAAUCGGUC [Fam1B.1 aminoacylation ribozyme variant]
self-aminoacylation [1]: 35.5
self-aminoacylation [2]: 1.42
self-aminoacylation [3]: 1.6
self-aminoacylation [4]: 1.76
self-aminoacylation [5]: 1.92
self-aminoacylation [6]: 26.3

AAGUUUGCUCAUACUCGCAAG [Fam3.1 aminoacylation ribozyme variant]
self-aminoacylation [1]: 0.813
self-aminoacylation [2]: 0.777
self-aminoacylation [3]: 0.742
self-aminoacylation [4]: 0.752
self-aminoacylation [5]: 0.715
self-aminoacylation [6]: 0.748

CUAAUUCAAACAAUCGCUCUG [Fam1A.1 aminoacylation ribozyme variant]
self-aminoacylation [1]: 0.713
self-aminoacylation [2]: 0.628
self-aminoacylation [3]: 0.668
self-aminoacylation [4]: 0.653
self-aminoacylation [5]: 0.527
self-aminoacylation [6]: 0.67

AUUAUCCUGGUCAUCCAGUGA [Fam2.1 aminoacylation ribozyme variant]
self-aminoacylation [1]: 11.1
self-aminoacylation [2]: 2.14
self-aminoacylation [3]: 3.69
self-aminoacylation [4]: 2.28
self-aminoacylation [5]: 4.27
self-aminoacylation [6]: 4.26

CCACACUUCAAUCAAACGGUC [Fam1B.1 aminoacylation ribozyme variant]
self-aminoacylation [1]: 0.747
self-aminoacylation [2]: 0.618
self-aminoacylation [3]: 0.543
self-aminoacylation [4]: 0.757
self-aminoacylation [5]: 0.575
self-aminoacylation [6]: 0.456

AUUCACCUGGGACAUCGGGUG [Fam2.2 aminoacylation ribozyme variant]
self-aminoacylation [1]: 55.4
self-aminoacylation [2]: 4.15
self-aminoacylation [3]: 7.06
self-aminoacylation [4]: 4.3
self-aminoacylation [5]: 6.71
self-aminoacylation [6]: 5.11

AUUACCCUGGUCAUCAAGGGA [Fam2.1 aminoacylation ribozyme variant]
self-aminoacylation [1]: 1.11
self-aminoacylation [2]: 0.87
self-aminoacylation [3]: 0.807
self-aminoacylation [4]: 1.13
self-aminoacylation [5]: 0.752
self-aminoacylation [6]: 1.2

From the supplement of paper PMC9233669
